Measured values taken from article PMC5861439.
pKd: −log10 of the molar value.

Molecular target: Saccharomyces cerevisiae Asf1 (2–169) (Saccharomyces cerevisiae) (UniProt P32447)
Assay: MST

Sequence of Saccharomyces cerevisiae Asf1 (2–169) (Saccharomyces cerevisiae) (P32447 2-169): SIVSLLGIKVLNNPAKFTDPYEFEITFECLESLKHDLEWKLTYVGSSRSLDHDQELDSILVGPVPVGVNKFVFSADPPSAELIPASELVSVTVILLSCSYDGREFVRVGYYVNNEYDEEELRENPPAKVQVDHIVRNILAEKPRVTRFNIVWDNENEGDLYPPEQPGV
Sequence of Rtt109−Vps75_(2) complex (Q07794 whole entry): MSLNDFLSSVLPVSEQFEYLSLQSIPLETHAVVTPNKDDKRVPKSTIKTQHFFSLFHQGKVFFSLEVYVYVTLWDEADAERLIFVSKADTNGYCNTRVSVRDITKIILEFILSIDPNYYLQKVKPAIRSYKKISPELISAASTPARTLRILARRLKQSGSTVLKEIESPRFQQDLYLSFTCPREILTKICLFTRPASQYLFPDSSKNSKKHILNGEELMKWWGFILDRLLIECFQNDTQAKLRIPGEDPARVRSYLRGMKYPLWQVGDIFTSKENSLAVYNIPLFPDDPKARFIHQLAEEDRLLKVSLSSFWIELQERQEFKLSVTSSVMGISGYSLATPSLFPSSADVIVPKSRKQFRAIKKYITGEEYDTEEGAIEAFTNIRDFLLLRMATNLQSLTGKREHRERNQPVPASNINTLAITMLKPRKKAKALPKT
Sequence of Rtt109−Vps75_(2) complex (P53853 whole entry): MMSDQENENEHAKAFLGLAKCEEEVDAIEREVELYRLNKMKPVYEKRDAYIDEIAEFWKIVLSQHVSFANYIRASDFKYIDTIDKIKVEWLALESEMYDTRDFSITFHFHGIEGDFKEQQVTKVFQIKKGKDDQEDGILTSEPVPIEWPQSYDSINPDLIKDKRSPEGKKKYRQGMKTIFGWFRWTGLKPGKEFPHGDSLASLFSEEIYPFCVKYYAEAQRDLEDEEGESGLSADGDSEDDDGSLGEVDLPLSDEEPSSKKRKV
Sequence of full-length Saccharomyces cerevisiae Rtt109 (Q07794 whole entry): as the sequence (Q07794 whole entry) above

Substance	pKd
Rtt109−Vps75_(2) complex (from UniProt Q07794;P53853)	4.37
full-length Saccharomyces cerevisiae Rtt109 (from UniProt Q07794 1-436) (enzyme)	5.12
